Assay [1] has as its target B-domain deleted FVIII (N8, turoctocog alfa) (UniProt P00451). The experiment in a line: ITC; MicroCal iTC200, 25 °C, 19 injections (first 0.4 uL, the rest 2 uL), 120 s between injections; who was in the syringe and the concentrations not given. Background: In ITC the heat of successive injections is recorded.
Assay [2] has as its system TIL’E’. The experiment in a line: ITC of FVIII a3 peptides with TIL’E’. The format is binding. The note with it: 25°C, higher concentrations not feasible due to solubility. As to the method:
(§1) ITC experiments were performed on a MicroCal iTC200 (Malvern Instruments, Malvern, UK) at 25°C. All experiments were performed with a total of 19 injections (the first injection 0.4 μL, the rest 2 μL), with 120 s between each injection and an initial delay of 60 s. The reference power was set to 6 μcal/s, and the syringe was stirred at 750 or 1000 Rpm depending on the specifications of the syringe. The concentrations of proteins used are specified in the figure legends.

In assay [3] the test system is VWF TIL’E’ R816W. The assay can be described thus: NMR 15N-1H HSQC of VWF TIL’E’ R816W with FVIII a3sTyr1664-sTyr1680. The format is binding. The conditions noted are these: five molar excess of peptide, 298 K. As to the method:
All NMR spectra were recorded at 298 K on Bruker Avance III 700 MHz or Bruker Avance III HD 800 MHz spectrometers equipped with cryoprobes. NMR samples consisted of 10–300 μM isotope labeled TIL’E’ in 10 mM HEPES 300 mM NaCl 5 mM CaCl2 5% D2O pH 7.3.
Two-dimensional ^15N-^1H heteronuclear single quantum correlation (HSQC) spectra ([39]) were recorded with 3-9-19 Watergate, whereas two-dimensional methyl–transverse relaxation optimized spectroscopy (TROSY) experiments were recorded using the standard heteronuclear multiple quantum coherence pulse scheme ([40]).
Arg816 is located in the VWF TIL’ β3-β4 sheet ([31]), where the largest chemical shift changes were observed (Figs. 2 and 3). […] However, the most affected residues are located far from each other on the three-dimensional structure of VWF TIL’E’.

For assay [4], the system named is FVIII. The note with it: full-length VWF R816W; cited from earlier work. The source says: Arg816 is located in the VWF TIL’ β3-β4 sheet ([31]), where the largest chemical shift changes were observed (Figs. 2 and 3).
Assay [5] deals with T1, VWF TIL’E’ (construct 1, residues 764–865 of VWF) (UniProt P04275 764-865).
T1 construct: von Willebrand factor, TIL’E’ domains, residues 764-865; mature VWF starts at Ser764; enterokinase site GTDDDDK immediately before residue 764; every result printed for plain 'VWF TIL’E’' is written on this molecule; Uniformly 15N-labelled or ILV-13CH3/2H-labelled in the NMR experiments; also called wild-type VWF TIL’E’; source: thioredoxin and His6 tag cut off with enterokinase; not shown: …
The assay can be described thus: NMR titration; 15N-1H HSQC of 100 uM 15N-labelled VWF TIL’E’ free and with ~500 uM (five molar excess) unlabelled FVIII a3 peptide; 298 K; 10 mM HEPES 300 mM NaCl 5 mM CaCl2 5% D2O pH 7.3; saturation not reached, upper bound of Kd from chemical shift changes. The note with it: both partners purified.

Assay [6] deals with FVIII. The assay can be described thus: ITC of VWF TIL’E’ constructs and mutants with FVIII. It is filed as binding. The conditions noted are these: 25°C; for N: ITC stoichiometry. Here is the method: as §1
Setting [7] is: ITC, three independent ITC experiments.

The values that follow come from paper PMC6697466, “Interaction Between the a3 Region of Factor VIII and the TIL’E’ Domains of the von Willebrand Factor” (Biophysical Journal, 2019).

In general, Kd refers to the free concentration of one partner at which half of the binding sites on the other are occupied at equilibrium, for simple one-to-one binding. As a reminder, the stoichiometry N is a count of units in the complex or per binding partner.

Several values for one entry are separate records, joined by “and”; a condition that tells them apart may be missing. Equal entries are not always repeated. Entries after “also recorded” stand apart in the source; their conditions may differ. Square brackets hold non-standard residues; d marks the D form. Ends that are not written are not given here. sY = N[C@@H](Cc1ccc(OS(=O)(=O)O)cc1)C(=O)O

The molecule “VWF TIL’E’-ALA-HPC4 (construct 3, residues 764–865 with C-terminal HPC4 tag), from E. coli (from UniProt P04275 764-865) (domain or fragment)” showed a Kd in assay [1] of 0.64 µM. `CC[C@H](C)[C@H](NC(=O)[C@H](CC(=O)O)NC(=O)[C@H](Cc1ccccc1)NC(=O)[C@H](CC(=O)O)NC(=O)[C@H](CCC(=O)O)NC(=O)[C@H](CCCCN)NC(=O)[C@H](CCCCN)NC(=O)[C@H](CCSC)NC(=O)[C@H](CCC(=O)O)NC(=O)[C@@H](NC(=O)[C@H](CO)NC(=O)[C@@H](NC(=O)[C@@H](NC(=O)[C@H](CC(=O)O)NC(=O)[C@H](CC(=O)O)NC(=O)[C@H](Cc1ccc(OS(=O)(=O)O)cc1)NC(=O)[C@H](CC(=O)O)NC(=O)[C@@H](NC(=O)[C@H](CCC(=O)O)NC(=O)[C@H](CCC(=O)O)NC(=O)[C@H](CCC(N)=O)NC(=O)[C@H](CC(=O)O)NC(=O)[C@H](CO)NC(=O)[C@H](CCC(N)=O)NC(=O)[C@H](CC(C)C)NC(=O)[C@@H](NC(=O)[C@@H](NC(=O)[C@H](CCCNC(=N)N)NC(=O)[C@@H](NC(=O)[C@@H](NC(=O)[C@@H](N)CCC(=O)O)[C@@H](C)CC)[C@@H](C)O)[C@@H](C)O)[C@@H](C)O)[C@@H](C)CC)[C@@H](C)O)[C@@H](C)CC)C(C)C)C(=O)N[C@@H](Cc1ccc(OS(=O)(=O)O)cc1)C(=O)N[C@@H](CC(=O)O)C(=O)N[C@@H](CCC(=O)O)C(=O)N[C@@H](CC(=O)O)C(=O)N[C@@H](CCC(=O)O)C(=O)N[C@@H](CC(N)=O)C(=O)N[C@@H](CCC(N)=O)C(=O)N[C@@H](CO)C(=O)N1CCC[C@H]1C(=O)N[C@@H](CCCNC(=N)N)C(=O)O` [a3sTyr1664-sTyr1680]: in assay [2], the “binding to TIL’E’ by ITC (in words)” value is “no high-affinity binding”. The “effect of R816W on affinity between FVIII a3 and VWF TIL’E’” value in assay [3] was “decreases the affinity”. Take “VWF TIL’E’-ALA-HPC4 expressed in HKB11 cell line (construct 4) (domain or fragment)”: the Kd in assay [1] is 0.75 µM. In the case of “VWF TIL’E’ R854Q (in the construct 1 background) (from UniProt P04275 764-865) (domain or fragment)”, in assay [1], the Kd came out at 7.2 µM, the dH is -7.5 kcal/mol and the stoichiometry N turned out to be 1.29.

In assay [1], “VWF TIL’E’ (construct 1, residues 764–865 of VWF) (from UniProt P04275 764-865) (domain or fragment)” had an equilibrium dissociation constant (Kd) of 0.71 µM, a dH of -12 kcal/mol and a stoichiometry N of 1. For the molecule “VWF TIL’E’ R854K (in the construct 1 background) (from UniProt P04275 764-865) (domain or fragment)”, in assay [1], the Kd was 25 µM. For the molecule “VWF R816W: full-length VWF R816W, severe VWD type 2N mutation”, the “binding to FVIII in ELISA” value in assay [4] was “does not bind FVIII”.

B1: FVIII a3 peptide a3_(sTyr1664-sTyr1680) (residues 1649–1689, Tyr1664 and Tyr1680 sulfated) (peptide)
chain: EITRTTLQSDQEEID[sY]DDTISVEMKKEDFDI[sY]DEDENQSPR
On to B1, for which the Kd in assay [5] is less than 25000 µM.

B2: VWF GAMG-TIL’E’: four amino acids GAMG followed by residues 766–864 of VWF (protein)
chain: GAMGSCRPPMVKLVCPADNLRAEGLECTKTCQNYDLECMSMGCVSGCLCPPGMVRHENRCVALERCPCFHQGKEYAPGETVKIGCNTCVCQDRKWNCTDHVCD
Regarding B2, in assay [6] (ITC), the “binding to FVIII by ITC (in words)” value is recorded as “substantially reduced binding; also recorded: the binding to FVIII had been abrogated; also recorded: unable to bind FVIII with micromolar affinity”.

B3: VWF TIL’E’: residues 764–865 of VWF; constructs 1 and 3 used interchangeably (protein)
chain: SLSCRPPMVKLVCPADNLRAEGLECTKTCQNYDLECMSMGCVSGCLCPPGMVRHENRCVALERCPCFHQGKEYAPGETVKIGCNTCVCQDRKWNCTDHVCDA
modifications: left off: thioredoxin, N-terminal, cleaved | His6, N-terminal, cleaved
notes: residues 764–865 of VWF; constructs 1 and 3 used interchangeably
Molecule B3 returned a N in assay [6] (three independent ITC experiments) of 1.0 ± 0.3. Moreover, the “binding to FVIII by ITC (in words)” value in assay [6] (ITC) is reported as “micromolar interaction”. In assay [6] (setting [7]), the Kd is 0.7 µM and 0.71 µM; the ΔH is -12.0 ± 1.3 kcal/mol.

B4: VWF R854Q TIL’E’: VWD type 2N mutation R854Q introduced into the construct 1 background (protein)
chain: SLSCRPPMVKLVCPADNLRAEGLECTKTCQNYDLECMSMGCVSGCLCPPGMVRHENRCVALERCPCFHQGKEYAPGETVKIGCNTCVCQDQKWNCTDHVCDA
modifications: left off: thioredoxin, N-terminal, cleaved | His6, N-terminal, cleaved
notes: VWD type 2N mutation R854Q introduced into the construct 1 background
Take B4: the N in assay [6] (one run) amounted to 1.29 ± 0.03. Further, in assay [6] (ITC), the “binding to FVIII by ITC (in words)” value was “Weak binding” and the “increase in Kd compared to the wild-type” value is on record as “about an order of magnitude”. Moreover, in assay [6] (ITC, one run), binding was put at a Kd of 7.2 ± 0.6 µM and the ΔH was -7.5 ± 0.2 kcal/mol.

B5: R854K: mutation R854K introduced into the construct 1 background (protein)
chain: SLSCRPPMVKLVCPADNLRAEGLECTKTCQNYDLECMSMGCVSGCLCPPGMVRHENRCVALERCPCFHQGKEYAPGETVKIGCNTCVCQDKKWNCTDHVCDA
modifications: left off: thioredoxin, N-terminal, cleaved | His6, N-terminal, cleaved
notes: mutation R854K introduced into the construct 1 background
In assay [6] (ITC, n not given), B5 showed a dissociation constant (Kd) of 25 ± 20 µM.

B6: VWF R816W TIL’E’: VWD type 2N mutation R816W introduced into the construct 3 background (protein)
chain: SLSCRPPMVKLVCPADNLRAEGLECTKTCQNYDLECMSMGCVSGCLCPPGMVWHENRCVALERCPCFHQGKEYAPGETVKIGCNTCVCQDRKWNCTDHVCDA
modifications: left off: His6, N-terminal, cleaved | DsbC, N-terminal, cleaved | HPC4 (…: ALA linker and …), C-terminal, state not stated
notes: VWD type 2N mutation R816W introduced into the construct 3 background
B6: in assay [6] (ITC, listed as VWF TIL’E R816W), the “binding to FVIII by ITC (in words)” value is on record as “no binding was observed”.
